Among the data in patent publication US20050148532A1 are decrease in activation of PI3K (production of PIP3 in PY20 immunoprecipitates) values, retold here.

In this experiment the target is histidine tagged p85 with serine 83 mutated to alanine (p85^S83A) (UniProt P27986). Briefly: cell-based or functional assay.

HA-14-3-3 zeta (hemagglutinin-tagged 14-3-3 zeta), sequence (P63103 whole entry): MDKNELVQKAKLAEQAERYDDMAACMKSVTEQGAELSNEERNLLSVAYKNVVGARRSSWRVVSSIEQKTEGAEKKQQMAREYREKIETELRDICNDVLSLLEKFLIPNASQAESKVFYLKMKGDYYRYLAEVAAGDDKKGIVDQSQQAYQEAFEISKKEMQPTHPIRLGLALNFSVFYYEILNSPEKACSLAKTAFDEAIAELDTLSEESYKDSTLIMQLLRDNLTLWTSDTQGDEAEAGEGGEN

On to “HA-14-3-3 zeta (hemagglutinin-tagged 14-3-3 zeta) (from UniProt P63103 1-245)”, for which the decrease in activation of PI3K (production of PIP3 in PY20 immunoprecipitates) amounted to 35%.
